B1: GpH7-A5/GpH7-B3 variant G237_19Q/GpL16-k0 (heterodimerized antibody, He Ab) (antibody, human IgG1, kappa)
heavy 1: not shown
heavy 2: not shown
light: DIVMTQSPLSLPVTPGEPASISCQASESLVHSNRNTYLHWYLQKPGQSPQLLIYKVSNRFSGVPDRFSGSGSGTDFTLKISRVEAEDVGVYYCSQNTHVPPTFGQGTKVEIERTVAAPSVFIFPPSDEQLKSGTASVVCLLNNFYPREAKVQWKVDNALQSGNSQESVTEQDSKDSTYSLSSTLTLSKADYEKHKVYACEVTHQGLSSPVTKSFNRGEC
notes: Anti-glypican-3 IgG1; the alteration is in the GpH7-B3 chain only; also called G237Q
B2: GpH7-A5/GpH7-B3 variant P238_02A/GpL16-k0 (heterodimerized antibody, He Ab) (antibody, human IgG1, kappa)
heavy 1: not shown
heavy 2: not shown
light: B1 light
notes: Anti-glypican-3 IgG1; the alteration is in the GpH7-B3 chain only; also called P238A
B3: GpH7-A5/GpH7-B3 variant P238_08L/GpL16-k0 (heterodimerized antibody, He Ab) (antibody, human IgG1, kappa)
heavy 1: not shown
heavy 2: not shown
light: B1 light
notes: Anti-glypican-3 IgG1; the alteration is in the GpH7-B3 chain only; also called P238L
B4: GpH7-A5/GpH7-B3 variant P238_04F/GpL16-k0 (heterodimerized antibody, He Ab) (antibody, human IgG1, kappa)
heavy 1: not shown
heavy 2: not shown
light: B1 light
notes: Anti-glypican-3 IgG1; the alteration is in the GpH7-B3 chain only; also called P238F
B5: GpH7-A5/GpH7-B3 variant S239_08L/GpL16-k0 (heterodimerized antibody, He Ab) (antibody, human IgG1, kappa)
heavy 1: not shown
heavy 2: not shown
light: B1 light
notes: Anti-glypican-3 IgG1; the alteration is in the GpH7-B3 chain only; also called S239L
B6: GpH7-A5/GpH7-B3 variant L235_04F/GpL16-k0 (heterodimerized antibody, He Ab) (antibody, human IgG1, kappa)
heavy 1: not shown
heavy 2: not shown
light: B1 light
notes: Anti-glypican-3 IgG1; the alteration is in the GpH7-B3 chain only; also called L235F
B7: GpH7-A5/GpH7-B3 variant P238_15Y/GpL16-k0 (heterodimerized antibody, He Ab) (antibody, human IgG1, kappa)
heavy 1: not shown
heavy 2: not shown
light: B1 light
notes: Anti-glypican-3 IgG1; the alteration is in the GpH7-B3 chain only; also called P238Y
B8: GpH7-A5/GpH7-B3 variant P238_19Q/GpL16-k0 (heterodimerized antibody, He Ab) (antibody, human IgG1, kappa)
heavy 1: not shown
heavy 2: not shown
light: B1 light
notes: Anti-glypican-3 IgG1; the alteration is in the GpH7-B3 chain only; also called P238Q
B9: GpH7-A5/GpH7-B3 variant L235_20W/GpL16-k0 (heterodimerized antibody, He Ab) (antibody, human IgG1, kappa)
heavy 1: not shown
heavy 2: not shown
light: B1 light
notes: Anti-glypican-3 IgG1; the alteration is in the GpH7-B3 chain only; also called L235W
B10: GpH7-A5/GpH7-B3 variant L234_09D/GpL16-k0 (heterodimerized antibody, He Ab) (antibody, human IgG1, kappa)
heavy 1: not shown
heavy 2: not shown
light: B1 light
notes: Anti-glypican-3 IgG1; the alteration is in the GpH7-B3 chain only; also called L234D
B11: GpH7-A5/GpH7-B3 variant S239_07I/GpL16-k0 (heterodimerized antibody, He Ab) (antibody, human IgG1, kappa)
heavy 1: not shown
heavy 2: not shown
light: B1 light
notes: Anti-glypican-3 IgG1; the alteration is in the GpH7-B3 chain only; also called S239I
B12: GpH7-A5/GpH7-B3 variant P238_10E/GpL16-k0 (heterodimerized antibody, He Ab) (antibody, human IgG1, kappa)
heavy 1: not shown
heavy 2: not shown
light: B1 light
notes: Anti-glypican-3 IgG1; the alteration is in the GpH7-B3 chain only; also called P238E
B13: GpH7-A5/GpH7-B3 variant P238_13S/GpL16-k0 (heterodimerized antibody, He Ab) (antibody, human IgG1, kappa)
heavy 1: not shown
heavy 2: not shown
light: B1 light
notes: Anti-glypican-3 IgG1; the alteration is in the GpH7-B3 chain only; also called P238S
B14: GpH7-A5/GpH7-B3 variant P238_09D/GpL16-k0 (heterodimerized antibody, He Ab) (antibody, human IgG1, kappa)
heavy 1: not shown
heavy 2: not shown
light: B1 light
notes: Anti-glypican-3 IgG1; the alteration is in the GpH7-B3 chain only; also called P238D
B15: GpH7-A5/GpH7-B3 variant S239_06M/GpL16-k0 (heterodimerized antibody, He Ab) (antibody, human IgG1, kappa)
heavy 1: not shown
heavy 2: not shown
light: B1 light
notes: Anti-glypican-3 IgG1; the alteration is in the GpH7-B3 chain only; also called S239M
B16: GpH7-A5/GpH7-B3 variant S239_01G/GpL16-k0 (heterodimerized antibody, He Ab) (antibody, human IgG1, kappa)
heavy 1: not shown
heavy 2: not shown
light: B1 light
notes: Anti-glypican-3 IgG1; also called S239G
B17: GpH7-A5/GpH7-B3 variant P238_06M/GpL16-k0 (heterodimerized antibody, He Ab) (antibody, human IgG1, kappa)
heavy 1: not shown
heavy 2: not shown
light: B1 light
notes: Anti-glypican-3 IgG1; the alteration is in the GpH7-B3 chain only; also called P238M
B18: GpH7-A5/GpH7-B3 variant S239_05P/GpL16-k0 (heterodimerized antibody, He Ab) (antibody, human IgG1, kappa)
heavy 1: not shown
heavy 2: not shown
light: B1 light
notes: Anti-glypican-3 IgG1; the alteration is in the GpH7-B3 chain only; also called S239P
B19: GpH7-A5/GpH7-B3 variant L235_09D/GpL16-k0 (heterodimerized antibody, He Ab) (antibody, human IgG1, kappa)
heavy 1: not shown
heavy 2: not shown
light: B1 light
notes: Anti-glypican-3 IgG1; the alteration is in the GpH7-B3 chain only; also called L235D
B20: GpH7-A5/GpH7-B3 variant P238_20W/GpL16-k0 (heterodimerized antibody, He Ab) (antibody, human IgG1, kappa)
heavy 1: not shown
heavy 2: not shown
light: B1 light
notes: Anti-glypican-3 IgG1; the alteration is in the GpH7-B3 chain only; also called P238W
B21: GpH7-A5/GpH7-B3 variant L235_15Y/GpL16-k0 (heterodimerized antibody, He Ab) (antibody, human IgG1, kappa)
heavy 1: not shown
heavy 2: not shown
light: B1 light
notes: Anti-glypican-3 IgG1; the alteration is in the GpH7-B3 chain only; also called L235Y
B22: GpH7-A5/GpH7-B3 variant P238_14T/GpL16-k0 (heterodimerized antibody, He Ab) (antibody, human IgG1, kappa)
heavy 1: not shown
heavy 2: not shown
light: B1 light
notes: Anti-glypican-3 IgG1; the alteration is in the GpH7-B3 chain only; also called P238T
B23: GpH7-A5/GpH7-B3 variant S239_03V/GpL16-k0 (heterodimerized antibody, He Ab) (antibody, human IgG1, kappa)
heavy 1: not shown
heavy 2: not shown
light: B1 light
notes: Anti-glypican-3 IgG1; the alteration is in the GpH7-B3 chain only; also called S239V
B24: GpH7-A5/GpH7-B3 variant P238_01G/GpL16-k0 (heterodimerized antibody, He Ab) (antibody, human IgG1, kappa)
heavy 1: not shown
heavy 2: not shown
light: B1 light
notes: Anti-glypican-3 IgG1; the alteration is in the GpH7-B3 chain only; also called P238G
B25: GpH7-A5/GpH7-B3 variant S267_01G/GpL16-k0 (heterodimerized antibody, He Ab) (antibody, human IgG1, kappa)
heavy 1: not shown
heavy 2: not shown
light: B1 light
notes: Anti-glypican-3 IgG1; the alteration is in the GpH7-B3 chain only; also called S267G
B26: GpH7-A5/GpH7-B3 variant P238_12R/GpL16-k0 (heterodimerized antibody, He Ab) (antibody, human IgG1, kappa)
heavy 1: not shown
heavy 2: not shown
light: B1 light
notes: Anti-glypican-3 IgG1; the alteration is in the GpH7-B3 chain only; also called P238R
B27: GpH7-A5/GpH7-B3 variant L235_16H/GpL16-k0 (heterodimerized antibody, He Ab) (antibody, human IgG1, kappa)
heavy 1: not shown
heavy 2: not shown
light: B1 light
notes: Anti-glypican-3 IgG1; the alteration is in the GpH7-B3 chain only; also called L235H
B28: GpH7-A5/GpH7-B3 variant P238_16H/GpL16-k0 (heterodimerized antibody, He Ab) (antibody, human IgG1, kappa)
heavy 1: not shown
heavy 2: not shown
light: B1 light
notes: Anti-glypican-3 IgG1; the alteration is in the GpH7-B3 chain only; also called P238H
B29: GpH7-A5/GpH7-B3 variant G237_20W/GpL16-k0 (heterodimerized antibody, He Ab) (antibody, human IgG1, kappa)
heavy 1: not shown
heavy 2: not shown
light: B1 light
notes: Anti-glypican-3 IgG1; the alteration is in the GpH7-B3 chain only; also called G237W
B30: GpH7-A5/GpH7-B3 variant P238_11K/GpL16-k0 (heterodimerized antibody, He Ab) (antibody, human IgG1, kappa)
heavy 1: not shown
heavy 2: not shown
light: B1 light
notes: Anti-glypican-3 IgG1; the alteration is in the GpH7-B3 chain only; also called P238K
B31: GpH7-A5/GpH7-B3 variant P238_07I/GpL16-k0 (heterodimerized antibody, He Ab) (antibody, human IgG1, kappa)
heavy 1: not shown
heavy 2: not shown
light: B1 light
notes: Anti-glypican-3 IgG1; the alteration is in the GpH7-B3 chain only; also called P238I

target: T1, FcγRIIb extracellular domain with C-terminal His tag (human, UniProt P31994 43-217); experiment: SPR (Biacore), captured antibody, FcγR as analyte; relative to GpH7-A5/GpH7-B3/GpL16-k0 = 100
T1 construct: extracellular domain; also called FcgRIIb; 2b; not shown: His tag at the C terminus
T1 sequence (looked up): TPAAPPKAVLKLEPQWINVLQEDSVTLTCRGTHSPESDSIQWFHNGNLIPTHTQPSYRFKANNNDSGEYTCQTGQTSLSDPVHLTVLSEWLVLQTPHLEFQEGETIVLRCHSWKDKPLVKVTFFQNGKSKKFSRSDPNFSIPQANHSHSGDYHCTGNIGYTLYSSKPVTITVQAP
Method: (§1) Analysis of interaction between objective antibody and the FcγR was carried out using Biacore T100 (GE Healthcare). HBS-EP+ (GE Healthcare) was used as the running buffer, and the measurement temperature was set to 25° C. Chips produced by immobilizing the antigen peptide by the amine coupling method to a Series S Sencor Chip CM5 (GE Healthcare), or alternatively, chips produced by allowing preliminarily biotinylated antigen peptides to interact with and immobilize onto a Series S Sensor Chip SA (certified) (GE Healthcare) were used. Antibodies of interest were captured onto an antigen peptide-immobilized chip, and allowed to interact to each FcγR diluted with running buffer. To regenerate and repeatedly use the chip, the antibodies captured on the chip were washed off by reacting 10 mM glycine-HCl, pH 1.5.
(§2) The FcγR-binding activity of each antibody was assessed primarily using as an indicator the FcγR-binding activity and dissociation constant for FcγR.

Binder | He/Con_2b (IIb binding)
B1 | 108 % of HeCon Ab
B2 | 57.4 % of HeCon Ab
B3 | 204 % of HeCon Ab
B4 | 312 % of HeCon Ab
B5 | 140 % of HeCon Ab
B6 | 118 % of HeCon Ab
B7 | 218 % of HeCon Ab
B8 | 110 % of HeCon Ab
B9 | 147 % of HeCon Ab
B10 | 150 % of HeCon Ab
B11 | 107 % of HeCon Ab
B12 | 232 % of HeCon Ab
B13 | 70.4 % of HeCon Ab
B14 | 221 % of HeCon Ab
B15 | 101 % of HeCon Ab
B16 | 144 % of HeCon Ab

Binder | He/Con_2b (IIb binding)
B17 | 174 % of HeCon Ab
B18 | 102 % of HeCon Ab
B19 | 106 % of HeCon Ab
B20 | 123 % of HeCon Ab
B21 | 149 % of HeCon Ab
B22 | 50.7 % of HeCon Ab
B23 | 108 % of HeCon Ab
B24 | 56 % of HeCon Ab
B25 | 105 % of HeCon Ab
B26 | 51.4 % of HeCon Ab
B27 | 76.9 % of HeCon Ab
B28 | 115 % of HeCon Ab
B29 | 193 % of HeCon Ab
B30 | 18.1 % of HeCon Ab
B31 | 80 % of HeCon Ab

target: T2, FcγRIIIa extracellular domain with C-terminal His tag (human, UniProt P08637 17-208); experiment: as above
T2 construct: extracellular domain; also called FcgRIIIa; 3a; not shown: His tag at the C terminus
Method: as §1, §2

T2 sequence (P08637 17-208): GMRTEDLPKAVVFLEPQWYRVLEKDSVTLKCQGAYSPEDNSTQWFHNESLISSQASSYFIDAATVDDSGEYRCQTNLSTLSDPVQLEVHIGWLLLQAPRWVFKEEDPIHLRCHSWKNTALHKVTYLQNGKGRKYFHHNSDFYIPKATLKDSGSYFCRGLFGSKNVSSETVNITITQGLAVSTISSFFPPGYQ

Binder | He/Con_3a (IIIa binding)
B1 | 43.3 % of HeCon Ab
B2 | 31.4 % of HeCon Ab
B3 | 75.5 % of HeCon Ab
B4 | 46.7 % of HeCon Ab
B5 | 95.3 % of HeCon Ab
B6 | 79.1 % of HeCon Ab
B7 | 64.5 % of HeCon Ab
B8 | 55.8 % of HeCon Ab
B9 | 76.4 % of HeCon Ab
B10 | 117 % of HeCon Ab
B11 | 79.3 % of HeCon Ab
B12 | 105 % of HeCon Ab
B13 | 44.9 % of HeCon Ab
B14 | 106 % of HeCon Ab
B15 | 78.2 % of HeCon Ab
B16 | 76.2 % of HeCon Ab

Binder | He/Con_3a (IIIa binding)
B17 | 30.5 % of HeCon Ab
B18 | 14.9 % of HeCon Ab
B19 | 91.6 % of HeCon Ab
B20 | 49.7 % of HeCon Ab
B21 | 80.6 % of HeCon Ab
B22 | 28 % of HeCon Ab
B23 | 76.6 % of HeCon Ab
B24 | 33 % of HeCon Ab
B25 | 53.8 % of HeCon Ab
B26 | 12.2 % of HeCon Ab
B27 | 59.1 % of HeCon Ab
B28 | 30.7 % of HeCon Ab
B29 | 19.7 % of HeCon Ab
B30 | 10.4 % of HeCon Ab
B31 | 27.8 % of HeCon Ab
